The assay deals with HA-Bicc1 with mutation D or with deletion of the KH tandem repeat. Put plainly: co-IP.

The values below come from paper doi:10.1101/2021.10.07.463531.

B1: GFP-Bicc1 (natural protein)
chain: MASQSEPGYLAAAQSDPGSNSERSTDSPVAGSEDDLVAAAPLLHSPEWSEERFRVDRKKLEAMLQAAAEGKGRSGEDFFQKIMEETNTQIAWPSKLKIGAKSKKDPHIKVSGKKEDVKEAKEMIMSVLDTKSNRVTLKMDVSHTEHSHVIGKGGNNIKKVMEDTGCHIHFPDSNRNNQAEKSNQVSIAGQPAGVESARARIRELLPLVLMFELPIAGILQPVPDPNTPSIQHISQTYSVSVSFKQRSRMYGATVTVRGSQNNTNAVKEGTAMLLEHLAGSLASAIPVSTQLDIAAQHHLFMMGRNGSNVKHIMQRTGAQIHFPDPSNPQKKSTVYLQGTIESVCLARQYLMGCLPLVLMFDMKEDIEVDPQVIAQLMEQLDVFISIKPKPKQPSKSVIVKSVERNALNMYEARKCLLGLESSGVSIATSLSPASCPAGLACPSLDILASAGLGLTGLGLLGPTTLSLNTSATPNSLLNALNTSVSPLQSSSSGTPSPTLWAPPIANTASATGFSTIPHLMLPSTAQATLTNILLSGVPTYGHTAPSPPPGLTPVDVHINSMQTEGKNISASINGHVQPANMKYGPLSTSSLGEKVLSSNHGDPSMQTAGPEQASPKSNSVEGCNDAFVEVGMPRSPSHSGNAGDLKQMLGASKVSCAKRQTVELLQGTKNSHLHGTDRLLSDPELSATESPLADKKAPGSERAAERAAAAQQKSERARLASQPTYVHMQAFDYEQKKLLATKAMLKKPVVTEVRTPTNTWSGLGFSKSMPAETIKELRRANHVSYKPTMTTAYEGSSLSLSRSSSREHLASGSESDNWRDRNGIGPMGHSEFSAPIGSPKRKQNKSREHYLSSSNYMDCISSLTGSNGCNLNSCFKGSDLPELFSKLGLGKYTDVFQQQEIDLQTFLTLTDQDLKELGITTFGARRKMLLAISELSKNRRKLFEPPNASCTSFLEGGASGRLPRQYHSDIASVSGRW
The molecule B1 returned a percent reduction of co-immunoprecipitated GFP-Bicc1 relative to WT HA-Bicc1 of 60 to 75%.
